Data on three molecules can be found in PMC6544321.

The target of test [1] is yeast single-chain H2A.Z-H2B (yeast). Description: ITC; MicroCal VP-ITC, 25°C, 20 mM MES (pH 6.0), 0.5 M NaCl; chaperone (50 or 150 μM) injected into histones (5 μM scZB or 15 μM scAB and mutants) in the cell; one-site fit. On the technique in general: In ITC the heat of successive injections is recorded.
Test [2] shares this target. Description: ITC; 0.2 M NaCl (Table 1); Swc2-Z or Chz1-M injected into single-chain histone dimers; otherwise as the ITC methods (25°C, 20 mM MES pH 6.0).
Test [3] concerns the target single chain H2A-H2B with H2A P50A/N91G (yeast). The test can be described thus: ITC; MicroCal VP-ITC, 25°C, 20 mM MES (pH 6.0), 0.5 M NaCl; chaperone (50 or 150 μM) injected into histones (5 μM scZB or 15 μM scAB and mutants) in the cell; one-site fit.
For test [4], the target named is single-chain H2A.Z-H2B with H2A.Z A57P (yeast). The description is as above.
The target in test [5] is single-chain H2A.Z-H2B with H2A.Z A57P/G98N (yeast). The test is described as above.
The target in test [6] is single-chain H2A.Z-H2B with H2A.Z G98N (yeast). Described as above.
The target in test [7] is single-chain H2A.Z-H2B with H2A.Z RA→GNV (yeast). The description is as above.
The target in test [8] is single-chain H2A.Z-H2B with H2B Y45A/M62A (yeast). The test is described as above.

B1: full-length Chz1 (natural protein)
chain: MSDEAKEKRELESQKESSHNKSEKSVEPKPKRRRRRNYDDYDAEVAKEETKAKNGLTKSENNGTVEDSESDMDDAKLDALMGNEGEEEEDDLAEIDTSNIITSGRRTRGKVIDYKKTAEELDKKEPSTGSKDDVGYGEKEEDDEDEEDDDFKE
In the case of B1, in test [1], the Kd (in general, the constant that tells how readily two partners part at equilibrium) was 130 nM and the stoichiometry N (usually the number of molecules, sites or subunits per partner or assembly) is 1 sites.

B2: middle region of Chz1 (Chz1 64-124) (domain or fragment)
chain: TVEDSESDMDDAKLDALMGNEGEEEEDDLAEIDTSNIITSGRRTRGKVIDYKKTAEELDKK
B2: the Kd in test [2] was 20 nM; in test [1] it was 1060 nM. Moreover, the stoichiometry N in test [2] and in test [1] was 1 sites in each case.

B3: middle and C-terminal region of Chz1 (Chz1 64-153) (domain or fragment)
chain: TVEDSESDMDDAKLDALMGNEGEEEEDDLAEIDTSNIITSGRRTRGKVIDYKKTAEELDKKEPSTGSKDDVGYGEKEEDDEDEEDDDFKE
With B3, the dissociation constant Kd in test [3] came out at 160 nM; in test [4] it was 740 nM; in test [5], 3.39 µM; in test [6], 970 nM; in test [7], 190 nM; in test [8] it was 1120 nM. In test [1], this molecule had a Kd of 120 nM. The stoichiometry N in test [3] worked out at 1.1 sites; in test [4], 1 sites; in test [5], 1.1 sites; in test [6], 0.9 sites; in test [7] it was 1 sites; in test [8], 0.8 sites. In test [1], this molecule returned a stoichiometry N of 0.9 sites.
